Measured values reported in IntAct's records for PubMed 22752157.

B1: Kinase suppressor of Ras 1 (Mus musculus), Q61097 (parent)
chain: MDRAALRAAAMGEKKEGGGGGAAADGGAGAAVSRALQQCGQLQKLIDISIGSLRGLRTKCSVSNDLTQQEIRTLEAKLVKYICKQQQSKLSVTPSDRTAELNSYPRFSDWLYIFNVRPEVVQEIPQELTLDALLEMDEAKAKEMLRRWGASTEECSRLQQALTCLRKVTGLGGEHKMDSGWSSTDARDSSLGPPMDMLSSLGRAGASTQGPRSISVSALPASDSPVPGLSEGLSDSCIPLHTSGRLTPRALHSFITPPTTPQLRRHAKLKPPRTPPPPSRKVFQLLPSFPTLTRSKSHESQLGNRIDDVTPMKFELPHGSPQLVRRDIGLSVTHRFSTKSWLSQVCNVCQKSMIFGVKCKHCRLKCHNKCTKEAPACRITFLPLARLRRTESVPSDINNPVDRAAEPHFGTLPKALTKKEHPPAMNLDSSSNPSSTTSSTPSSPAPFLTSSNPSSATTPPNPSPGQRDSRFSFPDISACSQAAPLSSTADSTRLDDQPKTDVLGVHEAEAEEPEAGKSEAEDDEEDEVDDLPSSRRPWRGPISRKASQTSVYLQEWDIPFEQVELGEPIGQGRWGRVHRGRWHGEVAIRLLEMDGHNQDHLKLFKKEVMNYRQTRHENVVLFMGACMNPPHLAIITSFCKGRTLHSFVRDPKTSLDINKTRQIAQEIIKGMGYLHAKGIVHKDLKSKNVFYDNGKVVITDFGLFGISGVVREERRENQLKLSHDWLCYLAPEIVREMIPGRDEDQLPFSKAADVYAFGTVWYELQARDWPFKHQPAEALIWQIGSGEGVRRVLASVSLGKEVGEILSACWAFDLQERPSFSLLMDMLERLPKLNRRLSHPGHFWKSADINSSKVMPRFERFGLGTLESGNPKM

Variants of: B1
Details: with VRK2, Q86Y07-1
VRK2, Q86Y07-1, sequence (Q86Y07 whole entry): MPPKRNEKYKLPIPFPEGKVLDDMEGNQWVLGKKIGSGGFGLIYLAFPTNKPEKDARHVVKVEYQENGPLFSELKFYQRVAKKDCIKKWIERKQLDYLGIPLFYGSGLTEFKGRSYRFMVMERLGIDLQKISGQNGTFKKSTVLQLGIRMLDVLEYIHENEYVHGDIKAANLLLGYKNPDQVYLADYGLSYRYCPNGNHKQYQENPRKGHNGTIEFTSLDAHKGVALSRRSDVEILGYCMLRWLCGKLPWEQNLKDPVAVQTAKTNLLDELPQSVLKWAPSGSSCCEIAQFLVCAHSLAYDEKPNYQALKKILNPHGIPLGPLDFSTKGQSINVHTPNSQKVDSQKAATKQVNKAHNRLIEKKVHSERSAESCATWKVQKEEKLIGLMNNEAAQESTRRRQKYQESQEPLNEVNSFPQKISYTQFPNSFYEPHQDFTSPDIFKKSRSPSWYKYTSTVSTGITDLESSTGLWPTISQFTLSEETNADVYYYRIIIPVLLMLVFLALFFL

Question: Which “effect of a mutation on the interaction” value does the source give for C809Y here?
Answer: decreasing interaction
